Ends that are not written are not given here.
B1: SEQ ID NO:75 peptide (peptide)
peptide: ELAWKIAKMIVSDIMQQ
modifications: also: cellulose-bound
B2: SEQ ID NO:76 peptide (peptide)
peptide: LAWKIAKMIVSDIMQQ
modifications: also: cellulose-bound
B3: SEQ ID NO:77 peptide (peptide)
peptide: AWKIAKMIVSDIMQQ
modifications: also: cellulose-bound
B4: SEQ ID NO:70 peptide (peptide)
peptide: DEAQEELAWKIAKMIVSDIMQQ
modifications: also: cellulose-bound
B5: SEQ ID NO:74 peptide (peptide)
peptide: EELAWKIAKMIVSDIMQQ
modifications: also: cellulose-bound
B6: SEQ ID NO:66 peptide (peptide)
peptide: QGNTDEAQEELAWKIAKMIVSDIMQQ
modifications: also: cellulose-bound
B7: SEQ ID NO:69 peptide (peptide)
peptide: TDEAQEELAWKIAKMIVSDIMQQ
modifications: also: cellulose-bound
B8: SEQ ID NO:72 peptide (peptide)
peptide: AQEELAWKIAKMIVSDIMQQ
modifications: also: cellulose-bound
B9: SEQ ID NO:68 peptide (peptide)
peptide: NTDEAQEELAWKIAKMIVSDIMQQ
modifications: also: cellulose-bound
B10: SEQ ID NO:71 peptide (peptide)
peptide: EAQEELAWKIAKMIVSDIMQQ
modifications: also: cellulose-bound
B11: SEQ ID NO:67 peptide (peptide)
peptide: GNTDEAQEELAWKIAKMIVSDIMQQ
modifications: also: cellulose-bound
B12: SEQ ID NO:73 peptide (peptide)
peptide: QEELAWKIAKMIVSDIMQQ
modifications: also: cellulose-bound
B13: SEQ ID NO:112 peptide Ac-DLAWKIAKMIVSDVMQQC, rhodamine-labeled (peptide)
peptide: Ac-DLAWKIAKMIVSDVMQQC(tetramethylrhodamine‑5‑maleimide)-NH2
B14: PV-37 (SEQ ID NO:104) FEELAWKIAKMIWSDVMQQC, rhodamine-labeled (peptide)
peptide: FEELAWKIAKMIWSDVMQQC(tetramethylrhodamine‑5‑maleimide)-NH2
B15: PV-49 (SEQ ID NO:107) FEELAWKIAKMIISDVFQQC, rhodamine-labeled (peptide)
peptide: FEELAWKIAKMIISDVFQQC(tetramethylrhodamine‑5‑maleimide)-NH2
B16: PV-47 (SEQ ID NO:105) QEEFAWKIAKMIVSDVFQQC, rhodamine-labeled (peptide)
peptide: QEEFAWKIAKMIVSDVFQQC(tetramethylrhodamine‑5‑maleimide)-NH2
B17: PV-48 (SEQ ID NO:106) QEEFAWKIAKMIISDVFQQC, rhodamine-labeled (peptide)
peptide: QEEFAWKIAKMIISDVFQQC(tetramethylrhodamine‑5‑maleimide)-NH2
B18: SEQ ID NO:111 peptide (. . . QEELAWKIAKMIWSDVMQQC), rhodamine-labeled (peptide)
peptide: VQGNTDEAQEELAWKIAKMIWSDVMQQC(tetramethylrhodamine‑5‑maleimide)-NH2
notes: also called single mutant V21W
B19: SEQ ID NO:94 peptide (peptide)
peptide: VQGNTDEAQEELAWK
modifications: also: cellulose-bound
B20: SEQ ID NO:91 peptide (peptide)
peptide: VQGNTDEAQEELAWKIAK
modifications: also: cellulose-bound
B21: SEQ ID NO:92 peptide (peptide)
peptide: VQGNTDEAQEELAWKIA
modifications: also: cellulose-bound
B22: SEQ ID NO:90 peptide (peptide)
peptide: VQGNTDEAQEELAWKIAKM
modifications: also: cellulose-bound
B23: SEQ ID NO:93 peptide (peptide)
peptide: VQGNTDEAQEELAWKI
modifications: also: cellulose-bound
B24: SEQ ID NO:97 peptide (peptide)
peptide: VQGNTDEAQEEL
modifications: also: cellulose-bound
B25: SEQ ID NO:83 peptide (peptide)
peptide: VQGNTDEAQEELAWKIAKMIVSDIMQ
modifications: also: cellulose-bound
B26: SEQ ID NO:85 peptide (peptide)
peptide: VQGNTDEAQEELAWKIAKMIVSDI
modifications: also: cellulose-bound
B27: SEQ ID NO:88 peptide (peptide)
peptide: VQGNTDEAQEELAWKIAKMIV
modifications: also: cellulose-bound
B28: SEQ ID NO:95 peptide (peptide)
peptide: VQGNTDEAQEELAW
modifications: also: cellulose-bound
B29: SEQ ID NO:96 peptide (peptide)
peptide: VQGNTDEAQEELA
modifications: also: cellulose-bound
B30: SEQ ID NO:89 peptide (peptide)
peptide: VQGNTDEAQEELAWKIAKMI
modifications: also: cellulose-bound
B31: SEQ ID NO:98 peptide (peptide)
peptide: VQGNTDEAQEE
modifications: also: cellulose-bound
B32: SEQ ID NO:86 peptide (peptide)
peptide: VQGNTDEAQEELAWKIAKMIVSD
modifications: also: cellulose-bound
B33: SEQ ID NO:87 peptide (peptide)
peptide: VQGNTDEAQEELAWKIAKMIVS
modifications: also: cellulose-bound
B34: SEQ ID NO:99 peptide (peptide)
peptide: VQGNTDEAQE
modifications: also: cellulose-bound
B35: SEQ ID NO:84 peptide (peptide)
peptide: VQGNTDEAQEELAWKIAKMIVSDIM
modifications: also: cellulose-bound

Target: T1, GFP-RIIα D/D (mouse, UniProt P12367 1-46)
T1 construct: range 1-46; His tag cleaved with thrombin; also called GFP-RII D/D; D/D domain of mouse RIIα (residues 1-46) fused to GFP; not shown: green fluorescent protein (GFP)
Experiment: SPOT peptide array, anti-GFP detection

T1 sequence (P12367 1-46): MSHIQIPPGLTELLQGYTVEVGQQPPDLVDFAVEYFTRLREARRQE

Q: Does B1 bind?
A: binds

Q: Does B2 bind?
A: binds

Q: Does B3 bind?
A: binds

Q: Does B4 bind?
A: binds

Q: Does B5 bind?
A: binds

Q: Does B6 bind?
A: binds

Q: Does B7 bind?
A: binds

Q: Does B8 bind?
A: binds

Q: Does B9 bind?
A: binds

Q: Does B10 bind?
A: binds

Q: Does B11 bind?
A: binds

Q: Does B12 bind?
A: binds

Target: T2, GFP-RIα D/D (bovine, UniProt P00514 1-109)
T2 construct: range 1-109; His tag cleaved with thrombin; also called dimerization/docking (D/D) domain of bovine RIα (residues 1-109) fused to GFP; not shown: green fluorescent protein (GFP)
Experiment: SPOT peptide array, anti-GFP detection

T2 sequence (P00514 1-109): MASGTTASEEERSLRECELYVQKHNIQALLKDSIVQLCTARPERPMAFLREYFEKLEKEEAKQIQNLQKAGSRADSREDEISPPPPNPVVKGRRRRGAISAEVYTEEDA

Q: Does B1 bind?
A: binds

Q: Does B4 bind?
A: binds

Q: Does B5 bind?
A: binds

Q: Does B6 bind?
A: binds

Q: Does B7 bind?
A: binds

Q: Does B8 bind?
A: binds

Q: Does B9 bind?
A: binds

Q: Does B10 bind?
A: binds

Q: Does B11 bind?
A: binds

Q: Does B12 bind?
A: binds

Target: T3, Full-length murine RIIα (murine, UniProt P12367 2-401)
T3 construct: mature; given as full-length
Experiment: fluorescence anisotropy, labeled peptide
Description: (§1) Binding of each fluorescently labeled peptide to the regulatory subunits was monitored using fluorescence anisotropy. RIα and RIIα were serially diluted beginning at 1 μM and 0.1 μM, respectively, into 10 mM HEPES pH 7.4, 0.15 M NaCl, 3 mM EDTA, 0.005% Surfactant P20 (Biacore) containing either 10 nM or 1 nM of fluorescently labeled peptide for RIα and RIIα, respectively. The samples were equilibrated for at least 1 hour at room temperature and fluorescence anisotropy monitored using a Fluoromax-2 (Jobin Yvon Horiba, SPEX Division, Edison, N.J.) equipped with Glan-Thompson polarizers. The rhodamine-labeled peptide was excited at 541 nm (5-10 nm bandpass) and emission monitored at 575 nm (5-10 nm bandpass). The anisotropy was calculated directly with the Fluoromax software using the following equation: […]
(§2) Several additional truncated and substituted peptides were synthesized and their affinity to RIα and RIIα evaluated using fluorescence anisotropy (see Table 8). Binding was evaluated for both RIα and RIIα0 using fluorescence anisotropy as described herein. Substituted residues are in bold Table 8. Tryptophan at a position corresponding to residue 21 of SEQ ID NO:2 is important for discriminating against binding to the RIIα subunit.

T3 sequence (P12367 2-401): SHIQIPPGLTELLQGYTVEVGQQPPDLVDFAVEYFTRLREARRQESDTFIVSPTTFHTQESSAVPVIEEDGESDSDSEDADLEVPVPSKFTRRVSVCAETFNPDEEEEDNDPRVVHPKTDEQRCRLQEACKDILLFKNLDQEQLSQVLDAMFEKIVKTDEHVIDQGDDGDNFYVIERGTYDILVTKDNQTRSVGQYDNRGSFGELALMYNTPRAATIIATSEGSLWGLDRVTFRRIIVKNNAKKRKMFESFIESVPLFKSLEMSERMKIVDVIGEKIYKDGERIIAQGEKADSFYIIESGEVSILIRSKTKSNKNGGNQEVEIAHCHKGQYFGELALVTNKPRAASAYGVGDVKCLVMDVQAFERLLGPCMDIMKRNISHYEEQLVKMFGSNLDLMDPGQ

Q: Which Kd does the source give for B13 here?
A: 0.107 µM

Q: B14 was tested. Which Kd did it give?
A: 0.15 µM

Q: For B15, which Kd is on record?
A: 0.0025 µM

Q: B16 was tested. Which Kd did it give?
A: 0.089 µM

Q: B17 was tested. Which Kd did it give?
A: 0.124 µM

Q: Which Kd does the source give for B18 here?
A: 0.083 µM

Target: T4, Full-length bovine RIα (bovine, UniProt P00514 1-380)
T4 construct: mature; given as full-length
Experiment: fluorescence anisotropy, labeled peptide
Description: as §1, §2

T4 sequence (P00514 whole entry): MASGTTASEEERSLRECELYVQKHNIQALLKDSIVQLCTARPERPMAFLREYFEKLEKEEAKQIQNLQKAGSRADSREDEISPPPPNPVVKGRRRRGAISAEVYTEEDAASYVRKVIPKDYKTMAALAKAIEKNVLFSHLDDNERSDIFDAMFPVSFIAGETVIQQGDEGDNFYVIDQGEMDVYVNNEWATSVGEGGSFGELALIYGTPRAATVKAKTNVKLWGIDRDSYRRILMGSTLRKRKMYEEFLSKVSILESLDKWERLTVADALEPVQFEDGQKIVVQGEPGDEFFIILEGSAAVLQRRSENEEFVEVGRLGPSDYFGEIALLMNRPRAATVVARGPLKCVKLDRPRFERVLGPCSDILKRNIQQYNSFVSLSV

Q: B13 was tested. Which Kd did it give?
A: 0.773 µM

Q: How did the Kd turn out when B14 was run?
A: 0.019 µM

Q: With B15 as the binder, how does the Kd read?
A: 0.0011 µM

Q: For B16, which Kd is on record?
A: 0.039 µM

Q: Which Kd does the source give for B17 here?
A: 0.012 µM

Q: Which Kd does the source give for B18 here?
A: 0.12 µM

Target: T1, GFP-RIIα D/D
Experiment: SPOT peptide array, anti-GFP detection
Remark: another data set of the same source
Description: (§3) In addition, the minimal sequence required for regulatory subunit binding was also assessed using N- and C-terminal truncations of the 27-residue human D-AKAP2 sequence. N-terminal or C-terminal truncated peptides were synthesized using SPOT synthesis on cellulose membrane as described herein. Binding was evaluated by incubating each membrane with GFP-RIα D/D and GFP-RIIα D/D as indicated below. The dimerization/docking (D/D) domain of bovine RIα (residues 1-109) and mouse RIIα (residues 1-46), fused to green fluorescence protein (GFP) were subcloned into a pRSET expression vector (Invitrogen, Carlsbad, Calif.) downstream of a histidine tag. The proteins, GFP-RIα D/D and GFP-RIIα D/D were expressed in E. coli BL21 (DE3) and purified using Talon (Clontech, Palo Alto, Calif.) resin. The His tag was cleaved using thrombin and the protein further purified using an S75-Sephadex (16/60) gel filtration column (Pharmacia, Peapack, N.J.) in 50 mM MES pH 5.8, 50 mM NaCl, 2 mM EDTA, 2 mM EGTA, 2 mM DTT. The protein was stored at 4° C.
(§4) Bound protein was detected using a primary antibody against GFP and enzyme conjugated secondary antibody for amplification of signal. The membrane was then analyzed by chemiluminescence.

Q: Does B19 bind?
A: no binding

Q: Does B20 bind?
A: no binding

Q: Does B21 bind?
A: no binding

Q: Does B22 bind?
A: no binding

Q: Does B23 bind?
A: no binding

Q: Does B24 bind?
A: no binding

Q: Does B25 bind?
A: binds

Q: Does B26 bind?
A: binds

Q: Does B27 bind?
A: binds

Q: Does B28 bind?
A: no binding

Q: Does B29 bind?
A: no binding

Q: Does B30 bind?
A: no binding

Q: Does B31 bind?
A: no binding

Q: Does B32 bind?
A: binds

Q: Does B33 bind?
A: binds

Q: Does B34 bind?
A: no binding

Q: Does B35 bind?
A: binds

Target: T2, GFP-RIα D/D
Experiment: SPOT peptide array, anti-GFP detection
Remark: another data set of the same source
Description: as §3, §4

Q: Does B19 bind?
A: no binding

Q: Does B20 bind?
A: no binding

Q: Does B21 bind?
A: no binding

Q: Does B22 bind?
A: no binding

Q: Does B23 bind?
A: no binding

Q: Does B24 bind?
A: no binding

Q: Does B25 bind?
A: binds

Q: Does B26 bind?
A: binds

Q: Does B27 bind?
A: no binding

Q: Does B28 bind?
A: no binding

Q: Does B29 bind?
A: no binding

Q: Does B30 bind?
A: no binding

Q: Does B31 bind?
A: no binding

Q: Does B32 bind?
A: no binding

Q: Does B33 bind?
A: no binding

Q: Does B34 bind?
A: no binding

Q: Does B35 bind?
A: binds
